# Results published in publication PMC12489474, “New structural insights into the control of the retinoic acid receptors RAR/RXR by DNA, ligands, and transcriptional coregulators” (Nucleic Acids Research, 2025).
# B1: DR0L Hoxb13 (dsDNA)
# DNA 1: CTTCCAGGAAGGTCAAGGCCAAGTTGAAAG
# DNA 2: CTTTCAACTTGGCCTTGACCTTCCTGGAAG
# B2: Atto647N-labeled NCoRNID (domain or fragment, UniProt Q60974 2059-2325, looked up)
# chain: QVPRTHRLITLADHICQIITQDFARNQVPSQASTSTFQTSPSALSSTPVRTKTSSRYSPESQSQTVLHPRPGPRVSPENLVDKSRGSRPGKSPERSHIPSEPYEPISPPQGPAVHEKQDSMLLLSQRGVDPAEQRSDSRSPGSISYLPSFFTKLESTSPMVKSKKQEIFRKLNSSGGGDSDMAAAQPGTEIFNLPAVTTSGAVSSRSHSFADPASNLGLEDIIRKALMGSFDDKVEDHGVVMSHPVGIMPGSASTSVVTSSEARRDE
# modifications: Atto647N label (site not stated)
# Experiments:
# [1] = target: RARalpha dAB dF;RXRalpha dAB;NCoR NID (Mus musculus / Homo sapiens (Methods …, UniProt P11416;P19793;Q60974 82-421;126-462;2059-2325, ||)); test: SEC-SAXS; BMS493; Fluorescence anisotropy: 20 mM Tris-HCl pH 7.5, 75 mM NaCl, 75 mM KCl, 2 mM CHAPS, 4 mM MgCl2, 2 mM TCEP, 10% glycerol, 0.5 nM Cy5-DNA, 4 uM ligands, 294 K; details: protein: recombinant;recombinant;recombinant; tags: N-terminal His6 (pET15b); copies: 1;1;1; blunt
# [2] = target: RARalpha dAB dF;RXRalpha dAB (Mus musculus / Homo sapiens (Methods …, UniProt P11416;P19793 82-421;126-462, |)); test: SEC-SAXS; apo; Fluorescence anisotropy: 20 mM Tris-HCl pH 7.5, 75 mM NaCl, 75 mM KCl, 2 mM CHAPS, 4 mM MgCl2, 2 mM TCEP, 10% glycerol, 0.5 nM Cy5-DNA, 4 uM ligands, 294 K; details: protein: recombinant;recombinant; tags: N-terminal His6 (pET15b); copies: 1;1; blunt
# [3] = target: T1, RAR/RXR heterodimer (RARAΔABF with RXRAΔAB) (mouse (printed as MmRARAΔABF; the same …, UniProt P11416 82-421; P19793 126-462); test: MST; RR–DR5 with BMS493; heterodimer titrated against labelled NCoRNID; same buffer, 22°C; details: both partners purified
# T1 construct: retinoic acid receptor alpha, residues 82-421 of Uniprot entry P11416; as the chain of m1; as the chain of m2; 1:1 heterodimer by SEC-MALS; this is told in the format of each assay; also called RR–DR0; source: E. coli BL21 (DE3); RAR and RXR purified separately, mixed (2-fold excess of RAR), heterodimer purified by SEC (Superdex 200); not shown: His6, N-terminal, cleaved
# T1 sequence (looked up) 1: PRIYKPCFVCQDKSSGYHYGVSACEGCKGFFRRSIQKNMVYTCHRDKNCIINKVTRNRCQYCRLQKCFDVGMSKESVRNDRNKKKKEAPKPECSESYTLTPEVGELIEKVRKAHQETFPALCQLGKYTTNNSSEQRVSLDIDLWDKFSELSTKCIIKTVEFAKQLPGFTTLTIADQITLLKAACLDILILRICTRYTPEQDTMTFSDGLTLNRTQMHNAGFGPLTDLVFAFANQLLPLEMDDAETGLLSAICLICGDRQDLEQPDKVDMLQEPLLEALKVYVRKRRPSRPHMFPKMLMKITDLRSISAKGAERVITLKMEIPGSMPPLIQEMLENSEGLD
# T1 sequence (looked up) 2: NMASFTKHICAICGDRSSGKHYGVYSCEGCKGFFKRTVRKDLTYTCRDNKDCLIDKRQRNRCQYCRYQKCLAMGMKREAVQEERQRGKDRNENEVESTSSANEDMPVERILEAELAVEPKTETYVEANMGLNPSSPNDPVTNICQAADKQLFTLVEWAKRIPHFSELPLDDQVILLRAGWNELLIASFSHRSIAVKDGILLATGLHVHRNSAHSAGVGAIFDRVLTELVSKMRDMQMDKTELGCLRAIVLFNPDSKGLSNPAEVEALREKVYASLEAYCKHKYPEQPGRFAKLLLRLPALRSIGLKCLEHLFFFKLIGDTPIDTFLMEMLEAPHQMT
# [4] = target: T1, RAR/RXR heterodimer (RARAΔABF with …); test: MST; RAR/RXR bound to DR0 DNA (RR–DR0), no ligand (apo); heterodimer titrated against labelled NCoRNID; same buffer, 22°C; details: both partners purified
# [5] = target: T1, RAR/RXR heterodimer (RARAΔABF with …); test: MST; RR–DR1 with BMS493; heterodimer titrated against labelled NCoRNID; same buffer, 22°C; details: both partners purified
# [6] = target: T1, RAR/RXR heterodimer (RARAΔABF with …); test: MST; RAR/RXR without DNA, with BMS493; heterodimer titrated against labelled NCoRNID; same buffer, 22°C; details: both partners purified
# [7] = target: T1, RAR/RXR heterodimer (RARAΔABF with …); test: MST; RAR/RXR bound to DR1 DNA (RR–DR1), no ligand (apo); heterodimer titrated against labelled NCoRNID; same buffer, 22°C; details: both partners purified
# [8] = target: T1, RAR/RXR heterodimer (RARAΔABF with …); test: MST; RAR/RXR bound to IR0 DNA (RR–IR0), no ligand (apo); heterodimer titrated against labelled NCoRNID; same buffer, 22°C; details: both partners purified
# [9] = target: T1, RAR/RXR heterodimer (RARAΔABF with …); test: MST; RAR/RXR without DNA, no ligand (apo); heterodimer in 2-fold serial dilution from 20 μM, added to an equal volume of 80 nM Atto647N-NCoRNID; 20 mM Tris–HCl pH 7.5, 75 mM NaCl, 75 mM KCl, 2 mM CHAPS, 4 mM MgCl2, 5% glycerol, 0.05% Tween-20; 22°C; details: both partners purified
# [10] = target: T1, RAR/RXR heterodimer (RARAΔABF with …); test: MST; RR–DR0 with BMS493; heterodimer titrated against labelled NCoRNID; same buffer, 22°C; details: both partners purified
# [11] = target: T1, RAR/RXR heterodimer (RARAΔABF with …); test: MST; RR–IR0 with BMS493; heterodimer titrated against labelled NCoRNID; same buffer, 22°C; details: both partners purified
# [12] = target: T1, RAR/RXR heterodimer (RARAΔABF with …); test: MST; RAR/RXR bound to DR5 DNA (RR–DR5), no ligand (apo); heterodimer titrated against labelled NCoRNID; same buffer, 22°C; details: both partners purified
# [13] = target: T1, RAR/RXR heterodimer (RARAΔABF with …); test: MST; RR–DR1 with the agonists AM580 + CD3254; heterodimer titrated against labelled NCoRNID; same buffer, 22°C; details: both partners purified
Binder,binding result [1],binding result [2],Kd [3],Kd [4],Kd [5],Kd [6],Kd [7],Kd [8],Kd [9],Kd [10],Kd [11],Kd [12],Kd [13]
B1,binds,binds,–,–,–,–,–,–,–,–,–,–,–
B2,–,–,335 nM,414 nM,499 nM,368 nM,531 nM,289 nM,490 nM,244 nM,289 nM,283 nM,5300 nM
